Reference: article PMC3784563

Molecular target: Argonaute 1 (Ago1) (human (endogenous in PC-3, LNCaP, HCT116)) (UniProt Q9UL18)
Test: co-IP; nuclear extracts from PC-3 cells; IP with anti-Ago1 (Wako 2A7) or anti-Ago2 (Wako 4G8), immunoblot for RNAP II; 10 mM Tris-HCl pH 8.0, 150 mM NaCl, 1 mM EDTA, 1 mM DTT, 0.1% NP-40, overnight at 4°C, protein G dynabeads; also done after transfection with siControl, siDicer or siDrosha (50 nM, 72 hrs)

decrease of the ratio of bound RNAP II to nuclear Ago1 after siDicer: 70%
Substance: RNA polymerase II (from UniProt P24928 1-1970) (complex)
